In test [1] the target is GFP-GR T524A S617A, full-length GR double mutant (human) (UniProt P04150). Kind of test: co-IP; GFP-Trap agarose beads on RIPA lysates of transfected U2OS or HEK293 cells stimulated with forskolin or calyculin A; blot with anti-pan 14-3-3 antibody.
For test [2], the target named is human 14-3-3ζ, full length, 6His-Linker-h14-3-3 (human) (UniProt P63104). Kind of test: SPR; Biacore 3000; 6His-tagged 14-3-3 immobilised on an NTA chip (2000 RU 14-3-3ζ, 4000 RU 14-3-3σ); peptides injected in HBS P+ buffer with 1 or 3% DMSO, 20 μl/min; Hill fit; triplicates. On the technique in general: SPR reads the build-up and loss of mass on a sensor chip optically.

The target of test [3] is GR_pS134, FITC-labelled 13-mer phosphopeptide (human) (UniProt P04150). Kind of test: fluorescence polarisation; FITC-labelled peptide at 60 nM (monophosphorylated) or 10 nM (doubly phosphorylated) titrated with 14-3-3ζ or 14-3-3σ in dilution series from 300 μM or 150 μM; 30 min at RT; 384-well plate; Hill fit; triplicates. (In general: Fluorescence polarisation rises when a labelled molecule tumbles more slowly, as on binding a larger partner.)

For test [4], the target named is GR_pS134-pT524, FITC-labelled 31-mer doubly phosphorylated peptide (human) (UniProt P04150). Described as above.
For test [5], the target named is GR_pS524-pS617, FITC-labelled diphosphoserine analogue of GR_pT524-pS617 (human) (UniProt P04150). The test is described as above.
The target in test [6] is GR_pT524-pS617 with K518 replaced by alanine (alanine scan) (human) (UniProt P04150). The test is described as above.
Test [7] concerns the target GR_pT524-pS617 with P526 replaced by alanine (alanine scan) (human) (UniProt P04150). The description is as above.
Test [8] addresses GR_pT524-pS617 with R614 replaced by alanine (alanine scan) (human) (UniProt P04150). Described as above.
Test [9] concerns the target GR_pT524-pS617 with pS617 replaced by alanine (alanine scan) (human) (UniProt P04150). The test is described as above.
Test [10] has as its target GR_pT524-pS617 with pT524 replaced by alanine (alanine scan) (human) (UniProt P04150). The test is described as above.
The target in test [11] is GR_pT524-pS617, FITC-labelled 31-mer doubly phosphorylated peptide (human) (UniProt P04150). The test is described as above.
Test [12] concerns the target GR_pT524-pT562, FITC-labelled 51-mer doubly phosphorylated peptide with the native sequence as a linker (human) (UniProt P04150). Described as above.
Test [13] concerns the target T1, human 14-3-3ζ, full length, 6His-Linker-h14-3-3 (human, UniProt P63104 1-245).
T1 chain: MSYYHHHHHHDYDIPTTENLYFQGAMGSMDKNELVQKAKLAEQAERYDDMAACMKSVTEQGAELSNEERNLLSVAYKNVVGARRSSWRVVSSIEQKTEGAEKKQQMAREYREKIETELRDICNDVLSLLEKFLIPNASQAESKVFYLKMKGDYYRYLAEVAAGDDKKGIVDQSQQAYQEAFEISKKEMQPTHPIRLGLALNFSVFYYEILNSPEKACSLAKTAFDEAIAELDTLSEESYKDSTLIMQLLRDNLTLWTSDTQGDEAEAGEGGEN
Kind of test: FP.

Test [14] has as its target T1, human 14-3-3ζ, full length, …. Kind of test: SPR.

No end group written: not given here. *: point of attachment. FITC = O=C1OC2(c3ccc(O)cc3Oc3cc(O)ccc32)c2ccc(NC(=S)*)cc21

GFP-GR T524A S617A, full-length GR double mutant (human), sequence (P04150 whole entry T524A/S617A): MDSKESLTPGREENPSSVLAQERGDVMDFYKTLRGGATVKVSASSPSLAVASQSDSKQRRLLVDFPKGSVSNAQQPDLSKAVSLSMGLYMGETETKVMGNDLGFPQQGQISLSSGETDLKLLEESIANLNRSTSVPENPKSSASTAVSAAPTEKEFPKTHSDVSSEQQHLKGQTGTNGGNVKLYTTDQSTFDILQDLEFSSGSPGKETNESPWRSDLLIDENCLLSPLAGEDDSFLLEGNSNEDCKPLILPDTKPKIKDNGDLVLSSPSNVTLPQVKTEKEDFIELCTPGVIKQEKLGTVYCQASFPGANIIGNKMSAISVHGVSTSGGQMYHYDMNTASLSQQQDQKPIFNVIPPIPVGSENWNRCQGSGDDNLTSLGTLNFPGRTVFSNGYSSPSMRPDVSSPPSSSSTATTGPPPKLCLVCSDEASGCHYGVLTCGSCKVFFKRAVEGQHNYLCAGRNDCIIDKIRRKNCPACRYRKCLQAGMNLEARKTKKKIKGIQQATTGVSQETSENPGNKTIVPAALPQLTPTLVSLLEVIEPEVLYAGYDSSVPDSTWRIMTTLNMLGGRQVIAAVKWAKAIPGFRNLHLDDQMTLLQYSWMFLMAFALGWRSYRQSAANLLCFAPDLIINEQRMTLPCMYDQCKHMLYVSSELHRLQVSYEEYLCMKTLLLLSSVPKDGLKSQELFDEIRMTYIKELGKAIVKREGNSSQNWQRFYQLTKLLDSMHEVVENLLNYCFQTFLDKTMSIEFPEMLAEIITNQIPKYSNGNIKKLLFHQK
GR_pT524-pT562, FITC-labelled 51-mer doubly phosphorylated peptide with the native sequence as a linker (human), sequence (P04150 518-568): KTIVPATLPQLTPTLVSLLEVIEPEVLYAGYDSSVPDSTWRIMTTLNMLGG

As for “14-3-3 proteins, endogenous (detected with anti-pan 14-3-3 antibody) (from UniProt P63104 1-245) (natural protein)”, the decrease of the interaction against the WT GR in [1] came out at 35%.
In test [2], “GR_pT524-pT562, 51-mer doubly phosphorylated peptide used for SPR (from UniProt P04150 518-568)” returned a Kd of 15000 nM.
Regarding “human 14-3-3ζ, full length, 6His-Linker-h14-3-3 (from UniProt P63104 1-245) (natural protein)”, the dissociation constant Kd in test [3] is 90000 nM; in test [4], 550 nM; in test [5], 140 nM; in test [6], 110 nM; in [7], 1200 nM; in test [8] it was 220 nM. In addition, the Kd in test [9] amounted to 1300 nM; in test [10] it was 120000 nM; in [11], 18 nM; in test [12] it was 23000 nM.

B1: GR_pS83-pT524, FITC-labelled 31-mer doubly phosphorylated peptide (peptide)
peptide: {FITC}-DLSKAVSLSMGLYGGGGGKTIVPATLPQLTP
modifications: also: phosphoserine at S83 and phosphothreonine at T524, places in chain not given here
On to B1, for which, in test [13], the affinity, expressed as Kd, was 900 nM.

B2: GR_pT524-pS617, 31-mer doubly phosphorylated peptide used for SPR and crystallography (peptide)
peptide: KTIVPATLPQLTPGGGGGRSYRQSSANLLCF
modifications: also: phosphothreonine at T524 and phosphoserine at S617, places in chain not given here
In test [14], B2 returned a Kd of 30 nM.

What is called Kd is the constant that tells how readily two partners part at equilibrium.

The record behind these values is PMC8080530, “Glucocorticoid receptor Thr524 phosphorylation by MINK1 induces interactions with 14-3-3 protein regulators” (The Journal of Biological Chemistry, 2021).
